Measured values as given in patent US20220332804A1 (CSL INNOVATION, published 2022).

Assays:
Test in all cases: SPR, KD relative to WT C2;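 further: biacore SPR at 37 °C, anti-C2 mAbs captured via immobilised goat anti-human IgG, C2 alanine or serine surface mutants as analytes, 1:1 model fitted, double-referenced sensograms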
[1] = biological target: T1, human C2 R510A (human, UniProt P06681 21-752)
T1 sequence: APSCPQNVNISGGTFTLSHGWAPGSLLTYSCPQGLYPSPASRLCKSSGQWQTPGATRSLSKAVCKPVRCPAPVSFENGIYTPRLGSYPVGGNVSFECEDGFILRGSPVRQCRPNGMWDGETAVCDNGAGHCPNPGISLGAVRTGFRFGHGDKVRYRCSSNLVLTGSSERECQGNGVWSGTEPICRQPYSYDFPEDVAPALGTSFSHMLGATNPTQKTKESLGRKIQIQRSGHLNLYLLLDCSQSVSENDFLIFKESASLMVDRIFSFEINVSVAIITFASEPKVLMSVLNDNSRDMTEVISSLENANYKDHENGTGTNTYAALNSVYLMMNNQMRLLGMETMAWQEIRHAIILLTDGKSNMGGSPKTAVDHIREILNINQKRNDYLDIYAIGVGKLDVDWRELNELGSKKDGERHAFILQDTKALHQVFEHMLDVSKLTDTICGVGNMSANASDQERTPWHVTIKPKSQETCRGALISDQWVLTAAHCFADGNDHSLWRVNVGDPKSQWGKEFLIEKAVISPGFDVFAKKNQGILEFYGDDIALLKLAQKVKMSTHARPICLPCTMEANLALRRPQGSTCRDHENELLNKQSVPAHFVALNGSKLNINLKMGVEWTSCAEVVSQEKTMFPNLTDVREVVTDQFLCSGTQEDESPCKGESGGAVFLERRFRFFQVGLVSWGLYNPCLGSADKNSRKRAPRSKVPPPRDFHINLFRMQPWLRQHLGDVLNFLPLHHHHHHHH

[2] = biological target: T2, human C2 D404A (human, UniProt P06681 21-752)
T2 sequence: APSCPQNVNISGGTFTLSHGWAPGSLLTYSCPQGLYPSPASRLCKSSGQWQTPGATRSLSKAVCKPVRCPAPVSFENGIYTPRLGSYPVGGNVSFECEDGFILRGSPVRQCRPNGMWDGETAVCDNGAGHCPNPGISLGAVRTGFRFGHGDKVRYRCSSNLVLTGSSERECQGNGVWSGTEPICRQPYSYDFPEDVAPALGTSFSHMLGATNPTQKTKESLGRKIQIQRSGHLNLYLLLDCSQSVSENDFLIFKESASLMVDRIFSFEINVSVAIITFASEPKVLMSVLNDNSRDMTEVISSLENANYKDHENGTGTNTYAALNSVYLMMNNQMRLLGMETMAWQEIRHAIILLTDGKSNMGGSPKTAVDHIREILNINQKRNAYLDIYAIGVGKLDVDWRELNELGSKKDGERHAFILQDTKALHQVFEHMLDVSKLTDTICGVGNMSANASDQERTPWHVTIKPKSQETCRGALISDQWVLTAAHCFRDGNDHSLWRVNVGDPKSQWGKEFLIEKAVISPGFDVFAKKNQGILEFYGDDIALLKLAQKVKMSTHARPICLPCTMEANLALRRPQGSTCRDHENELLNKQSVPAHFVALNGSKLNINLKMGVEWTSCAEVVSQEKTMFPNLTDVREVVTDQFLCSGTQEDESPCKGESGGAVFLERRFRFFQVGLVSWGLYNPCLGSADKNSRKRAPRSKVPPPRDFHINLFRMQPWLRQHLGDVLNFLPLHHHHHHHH

[3] = biological target: T3, human C2 K430A (human, UniProt P06681 21-752)
T3 sequence: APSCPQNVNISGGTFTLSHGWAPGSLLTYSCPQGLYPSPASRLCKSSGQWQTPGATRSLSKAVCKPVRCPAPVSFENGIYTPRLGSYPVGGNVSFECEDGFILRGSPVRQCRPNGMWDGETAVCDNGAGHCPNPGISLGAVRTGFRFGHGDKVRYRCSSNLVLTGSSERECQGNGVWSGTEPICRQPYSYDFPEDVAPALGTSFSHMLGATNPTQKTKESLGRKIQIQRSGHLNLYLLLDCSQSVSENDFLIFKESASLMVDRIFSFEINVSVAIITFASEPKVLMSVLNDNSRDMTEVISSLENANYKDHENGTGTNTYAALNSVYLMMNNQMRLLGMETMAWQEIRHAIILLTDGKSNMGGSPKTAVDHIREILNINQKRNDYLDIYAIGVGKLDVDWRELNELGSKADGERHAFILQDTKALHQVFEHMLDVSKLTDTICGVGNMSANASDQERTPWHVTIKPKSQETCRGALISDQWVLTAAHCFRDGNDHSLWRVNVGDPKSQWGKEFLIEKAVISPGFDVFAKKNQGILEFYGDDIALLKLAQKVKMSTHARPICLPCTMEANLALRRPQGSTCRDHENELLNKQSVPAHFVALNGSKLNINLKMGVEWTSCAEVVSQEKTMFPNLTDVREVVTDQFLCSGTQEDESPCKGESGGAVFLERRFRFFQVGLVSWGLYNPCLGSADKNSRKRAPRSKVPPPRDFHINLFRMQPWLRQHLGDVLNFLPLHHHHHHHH

[4] = biological target: T4, human C2 P486A (human, UniProt P06681 21-752)
T4 sequence: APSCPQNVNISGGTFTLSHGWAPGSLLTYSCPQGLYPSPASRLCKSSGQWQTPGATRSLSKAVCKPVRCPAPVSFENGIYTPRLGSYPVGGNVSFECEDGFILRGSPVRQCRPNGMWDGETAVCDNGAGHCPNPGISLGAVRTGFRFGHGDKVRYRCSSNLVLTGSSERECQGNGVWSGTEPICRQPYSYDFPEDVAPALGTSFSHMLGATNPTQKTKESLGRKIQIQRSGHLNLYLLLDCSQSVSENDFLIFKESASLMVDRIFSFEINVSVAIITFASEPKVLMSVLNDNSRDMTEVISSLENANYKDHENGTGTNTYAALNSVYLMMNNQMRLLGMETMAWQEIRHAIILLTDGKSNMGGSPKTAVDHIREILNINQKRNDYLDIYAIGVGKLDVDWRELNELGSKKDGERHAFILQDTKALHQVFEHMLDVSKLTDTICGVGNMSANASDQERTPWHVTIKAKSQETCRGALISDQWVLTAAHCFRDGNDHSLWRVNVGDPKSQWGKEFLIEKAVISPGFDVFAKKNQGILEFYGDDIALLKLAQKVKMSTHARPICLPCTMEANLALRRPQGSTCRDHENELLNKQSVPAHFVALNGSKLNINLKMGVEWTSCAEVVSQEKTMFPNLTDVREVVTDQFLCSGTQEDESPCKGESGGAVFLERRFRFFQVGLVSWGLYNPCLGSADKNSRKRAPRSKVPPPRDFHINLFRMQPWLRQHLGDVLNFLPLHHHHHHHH

B1: RF16-226 (antibody, human IgG4 S228P, lambda)
heavy: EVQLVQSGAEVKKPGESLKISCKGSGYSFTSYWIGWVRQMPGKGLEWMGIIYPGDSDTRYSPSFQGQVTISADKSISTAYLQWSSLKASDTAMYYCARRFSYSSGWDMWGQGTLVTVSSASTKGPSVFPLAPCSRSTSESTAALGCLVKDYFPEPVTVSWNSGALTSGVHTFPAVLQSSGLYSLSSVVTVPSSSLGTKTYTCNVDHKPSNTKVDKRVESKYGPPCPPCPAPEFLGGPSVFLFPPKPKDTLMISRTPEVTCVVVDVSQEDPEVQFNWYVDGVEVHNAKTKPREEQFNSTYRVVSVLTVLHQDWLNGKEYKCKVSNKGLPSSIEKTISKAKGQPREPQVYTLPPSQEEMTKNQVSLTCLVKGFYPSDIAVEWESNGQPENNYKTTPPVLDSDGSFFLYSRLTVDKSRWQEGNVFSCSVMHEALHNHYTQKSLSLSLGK
light: SYELTQPPSVSVSPGQTARITCSGDALTSKYVAWYQQKSGLAPLLVIYEDTRRPSGIPAKFSGSSSGSVATLTISGAHGDDEADYYCYSTDASGHQRVFGGGTKLTVLSQPKAAPSVTLFPPSSEELQANKATLVCLISDFYPGAVTVAWKADGSPVKAGVETTKPSKQSNNKYAASSYLSLTPEQWKSHRSYSCQVTHEGSTVEKTVAPTECS
notes: pH-dependent anti-C2 antibody from a phage display library; also called WT
[1]
  Fold diff: 11 fold
[2]
  Fold diff: 1 fold
[3]
  Fold diff: 6 fold
[4]
  Fold diff: 1 fold
